Laboratory results published in paper PMC2814163 (2010).

B1: CI-MPR Dom1-2 (protein)
chain: AAGTQGAEFPELCSYTWEAVDTKNNMLYKINICGNMGVAQCGPSSAVCMHDLKTDSFHSVGDSLLKTASRSLLEFNTTVNCKQQNHKIQSSITFLCGKTLGTPEFVTATDCVHYFEWRTTAACKKNIFKANKEVPCYAFDRELKKHDLNPLIKTSGAYLVDDSDPDTSLFINVCRDIEVLRASSPQVRVCPTGAAACLVRGDRAFDVGRPQEGLKLVSNDRLVLSYVKEGAGQPDFCDGHSPAVTITFVCPSERREGTIPKLTAKSNCRFEIEWVTEYACHR
B2: CI-MPR Dom1-3 (protein)
chain: AAGTQGAEFPELCSYTWEAVDTKNNMLYKINICGNMGVAQCGPSSAVCMHDLKTDSFHSVGDSLLKTASRSLLEFNTTVNCKQQNHKIQSSITFLCGKTLGTPEFVTATDCVHYFEWRTTAACKKNIFKANKEVPCYAFDRELKKHDLNPLIKTSGAYLVDDSDPDTSLFINVCRDIEVLRASSPQVRVCPTGAAACLVRGDRAFDVGRPQEGLKLVSNDRLVLSYVKEGAGQPDFCDGHSPAVTITFVCPSERREGTIPKLTAKSNCRFEIEWVTEYACHRDYLESRSCSLSSAQHDVAVDLQPLSRVEASDSLFYTSEADEYTYYLSICGGSQAPICNKKDAAVCQVKKADSTQVKVAGRPQNLTLRYSDGDLTLIYFGGEECSSGFQRMSVINFECNQTAGNNGRGAPVFTGEVDCTYFFTWDTKYACVH

Target: T1, Glu-plasminogen (Homo sapiens, UniProt P00747)
T1 chain: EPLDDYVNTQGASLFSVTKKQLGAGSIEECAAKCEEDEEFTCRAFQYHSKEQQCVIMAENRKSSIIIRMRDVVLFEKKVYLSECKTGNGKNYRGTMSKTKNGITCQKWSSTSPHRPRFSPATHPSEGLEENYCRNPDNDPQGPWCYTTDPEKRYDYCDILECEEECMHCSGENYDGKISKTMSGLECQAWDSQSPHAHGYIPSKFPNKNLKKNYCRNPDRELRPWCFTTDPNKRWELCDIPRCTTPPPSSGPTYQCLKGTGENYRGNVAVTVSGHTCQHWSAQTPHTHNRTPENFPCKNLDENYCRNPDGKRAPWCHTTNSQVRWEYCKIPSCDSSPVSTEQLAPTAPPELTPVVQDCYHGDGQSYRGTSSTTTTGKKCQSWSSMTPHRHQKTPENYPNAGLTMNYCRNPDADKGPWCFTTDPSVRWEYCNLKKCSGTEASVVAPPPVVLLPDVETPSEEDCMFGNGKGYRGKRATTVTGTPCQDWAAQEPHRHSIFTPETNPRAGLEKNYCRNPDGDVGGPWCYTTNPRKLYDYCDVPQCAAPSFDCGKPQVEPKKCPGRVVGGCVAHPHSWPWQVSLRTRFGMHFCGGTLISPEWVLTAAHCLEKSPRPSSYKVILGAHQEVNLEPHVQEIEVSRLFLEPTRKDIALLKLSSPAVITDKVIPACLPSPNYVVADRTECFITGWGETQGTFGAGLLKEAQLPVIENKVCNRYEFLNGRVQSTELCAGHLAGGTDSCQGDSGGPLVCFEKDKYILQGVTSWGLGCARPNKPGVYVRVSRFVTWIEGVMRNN
Assay: SPR

Binder	Kd
B1	5 nM
B2	3 nM
